Measurements taken from patent publication US20080102072A1.

Experiments:
[1] = molecular target: human IFNAR1, membrane receptor on cells (U266 human myeloma cells; Hela and A549 cells in the functional assays) (human) (UniProt P17181); assay: flow cytometry on U266 cells, fluoresceinated mAb 1 µg/100 µl, no soluble hIFNAR1
[2] = molecular target: hIFNAR1 ECD-IgG fusion protein (immunoadhesin, pRK5 hIFNAR1-IgG clone 53.65), wild type (human); assay: competitive radioimmunoprecipitation with 125I-hIFNAR1-IgG and unlabeled hIFNAR1-IgG, Scatchard analysis
[3] = molecular target: IFNAR1-IgG multiple alanine mutant 1, residues 19-25 (RWNRSDE to AWNASAA) (human); assay: capture ELISA, mutant IFNAR1-IgG captured by goat anti-hIgG-Fc, mAb 10 µg/ml; OD as % of wild type IFNAR1-IgG
[4] = molecular target: IFNAR1-IgG multiple alanine mutant 4, residues 103-111 (… to …) (human); assay: as above
[5] = molecular target: IFNAR1-IgG multiple alanine mutant 6, residues 157-162 (RHKIYK to AAAIYA) (human); assay: as above
Sequence of IFNAR1-IgG multiple alanine mutant 6, residues 157-162 (RHKIYK to AAAIYA) (human) (chain, as listed by the source mutant limits assumed): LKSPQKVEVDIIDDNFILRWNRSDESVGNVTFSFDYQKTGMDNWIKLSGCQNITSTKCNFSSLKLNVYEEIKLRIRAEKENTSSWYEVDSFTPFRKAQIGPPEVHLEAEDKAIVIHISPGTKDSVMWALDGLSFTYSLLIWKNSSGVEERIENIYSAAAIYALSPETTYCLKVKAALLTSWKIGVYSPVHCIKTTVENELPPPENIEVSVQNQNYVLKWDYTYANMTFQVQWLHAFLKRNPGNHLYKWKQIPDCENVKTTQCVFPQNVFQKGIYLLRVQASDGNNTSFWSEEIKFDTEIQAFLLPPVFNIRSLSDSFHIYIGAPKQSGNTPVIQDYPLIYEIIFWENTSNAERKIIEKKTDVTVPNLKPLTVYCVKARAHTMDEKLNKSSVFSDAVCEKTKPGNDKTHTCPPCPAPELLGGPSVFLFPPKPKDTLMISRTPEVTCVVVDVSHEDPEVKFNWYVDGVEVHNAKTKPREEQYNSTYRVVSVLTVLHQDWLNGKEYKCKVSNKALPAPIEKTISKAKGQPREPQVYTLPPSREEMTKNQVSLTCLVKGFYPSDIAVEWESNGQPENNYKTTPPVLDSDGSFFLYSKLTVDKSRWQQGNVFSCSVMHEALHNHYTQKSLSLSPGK

[6] = molecular target: IFNAR1-IgG multiple alanine mutant 8, residues 291-298 (EEIKFDTE to AAIAFATA) (human); assay: as above
[7] = molecular target: IFNAR1-IgG multiple alanine mutant 3, residues 76-80 (RAEKE to AAAAA) (human); assay: as above
[8] = molecular target: IFNAR1-IgG multiple alanine mutant 7, residues 244-249 (HLYKWK to ALYAWA) (human); assay: as above
[9] = molecular target: IFNAR1-IgG multiple alanine mutant 10, residues 383-388 (DEKLNK to AAALNA) (human); assay: as above
[10] = molecular target: IFNAR1-IgG multiple alanine mutant 9, residues 352-359 (ERKIIEKK to AAAIIAAA) (human); assay: as above
[11] = molecular target: IFNAR1-IgG multiple alanine mutant 2, residues 69-74 (EEIKLR to AAIALA) (human); assay: as above
[12] = molecular target: IFNAR1-IgG multiple alanine mutant 5, residues 148-152 (EERIE to AAAIA) (human); assay: as above
[13] = molecular target: human IFNAR1, membrane receptor on cells (U266 human myeloma cells; Hela and A549 cells in the functional assays) (human) (UniProt P17181); assay: cell-based or functional assay
[14] = molecular target: human IFNAR1, membrane receptor on cells (U266 human myeloma cells; Hela and A549 cells in the functional assays) (human) (UniProt P17181); assay: flow cytometry on U266 cells, F-mAb preincubated with competitor: 10 µg soluble hIFNAR1-IgG Mutant #7 (244-249)
[15] = molecular target: IFNAR1-IgG single alanine mutant K294A (human); assay: capture ELISA, single alanine mutant IFNAR1-IgG captured by goat anti-hIgG-Fc; OD as % of wild type IFNAR1-IgG
[16] = molecular target: IFNAR1-IgG single alanine mutant H244A (human); assay: as above
Sequence of IFNAR1-IgG single alanine mutant H244A (human) (chain, as listed by the source H244A H244A limits assumed): as the sequence (chain, as listed by the source mutant limits assumed) above, with A157R, A158H, A159K, A162K, H244A counted along it

[17] = molecular target: IFNAR1-IgG single alanine mutant R74A (human); assay: as above
[18] = molecular target: IFNAR1-IgG single alanine mutant K247A (human); assay: as above
Sequence of IFNAR1-IgG single alanine mutant K247A (human) (chain, as listed by the source K247A K247A limits assumed): as the sequence (chain, as listed by the source mutant limits assumed) above, with A157R, A158H, A159K, A162K, K247A counted along it

[19] = molecular target: IFNAR1-IgG single alanine mutant E291A (human); assay: as above
Sequence of IFNAR1-IgG single alanine mutant E291A (human) (chain, as listed by the source E291A E291A limits assumed): as the sequence (chain, as listed by the source mutant limits assumed) above, with A157R, A158H, A159K, A162K, E291A counted along it

[20] = molecular target: IFNAR1-IgG single alanine mutant K249A (human); assay: as above
Sequence of IFNAR1-IgG single alanine mutant K249A (human) (chain, as listed by the source K249A K249A limits assumed): as the sequence (chain, as listed by the source mutant limits assumed) above, with A157R, A158H, A159K, A162K, K249A counted along it

[21] = molecular target: IFNAR1-IgG single alanine mutant D296A (human); assay: as above
[22] = molecular target: IFNAR1-IgG single alanine mutant E292A (human); assay: as above
[23] = molecular target: IFNAR1-IgG single alanine mutant E298A (human); assay: as above
Sequence of IFNAR1-IgG single alanine mutant E298A (human) (chain, as listed by the source E298A E298A limits assumed): as the sequence (chain, as listed by the source mutant limits assumed) above, with A157R, A158H, A159K, A162K, E298A counted along it

[24] = molecular target: IFNAR1-IgG single alanine mutant E70A (human); assay: as above
[25] = molecular target: IFNAR1-IgG single alanine mutant E69A (human); assay: as above
[26] = molecular target: IFNAR1-IgG single alanine mutant K72A (human); assay: as above
Sequence of IFNAR1-IgG single alanine mutant K72A (human) (chain, as listed by the source K72A K72A limits assumed): as the sequence (chain, as listed by the source mutant limits assumed) above, with K72A, A157R, A158H, A159K, A162K counted along it

[27] = molecular target: human IFNAR1, membrane receptor on cells (U266 human myeloma cells; Hela and A549 cells in the functional assays) (human) (UniProt P17181); assay: flow cytometry on U266 cells, F-mAb preincubated with competitor: 10 µg soluble hIFNAR1-IgG Mutant #8 (291-298)
[28] = molecular target: human IFNAR1, membrane receptor on cells (U266 human myeloma cells; Hela and A549 cells in the functional assays) (human) (UniProt P17181); assay: flow cytometry on U266 cells, F-mAb preincubated with competitor: 10 µg soluble wild type hIFNAR1-IgG

Sequence of UniProt P17181 (P17181 28-557): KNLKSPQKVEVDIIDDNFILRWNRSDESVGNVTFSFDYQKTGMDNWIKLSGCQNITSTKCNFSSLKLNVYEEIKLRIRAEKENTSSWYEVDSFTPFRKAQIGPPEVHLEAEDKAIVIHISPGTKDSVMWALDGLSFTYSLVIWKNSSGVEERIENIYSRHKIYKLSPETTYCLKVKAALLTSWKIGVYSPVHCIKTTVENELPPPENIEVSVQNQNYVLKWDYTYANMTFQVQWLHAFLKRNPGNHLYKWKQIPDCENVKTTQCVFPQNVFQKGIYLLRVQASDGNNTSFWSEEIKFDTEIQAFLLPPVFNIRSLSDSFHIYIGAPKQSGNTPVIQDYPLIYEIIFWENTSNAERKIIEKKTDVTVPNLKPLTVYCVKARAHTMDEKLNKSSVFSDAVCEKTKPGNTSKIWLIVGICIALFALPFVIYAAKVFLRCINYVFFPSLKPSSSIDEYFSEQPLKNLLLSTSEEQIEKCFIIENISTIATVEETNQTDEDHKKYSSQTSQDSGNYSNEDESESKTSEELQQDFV

Kd [2] [nM] | % Wild type binding of mAbs [3] [%] | % Wild type binding of mAbs [4] [%] | % Wild type binding of mAbs [5] [%] | % Wild type binding of mAbs [6] [%] | % Wild type binding of mAbs [7] [%] | % Wild type binding of mAbs [8] [%] | % Wild type binding of mAbs [9] [%] | % Wild type binding of mAbs [10] [%] | % Wild type binding of mAbs [11] [%] | % Wild type binding of mAbs [12] [%] | EC50 of mAb neutralizing the anti-viral cytopathic effect of 10 units/ml IFNα1 on A549 cells (EMC virus) [13] [µg/mL] | EC50 of mAb neutralizing the anti-viral cytopathic effect of 10 units/ml IFNα2/1 on A549 cells (EMC virus) [13] [µg/mL] | EC50 of mAb neutralizing the anti-viral cytopathic effect of 10 units/ml IFNα2 on A549 cells (EMC virus) [13] [µg/mL] | EC50 of mAb neutralizing the anti-viral cytopathic effect of 10 units/ml IFNα5 on A549 cells (EMC virus) [13] [µg/mL] | EC50 of mAb neutralizing the anti-viral cytopathic effect of 10 units/ml IFNα8 on A549 cells (EMC virus) [13] [µg/mL] | EC50 of mAb neutralizing the anti-viral cytopathic effect of 10 units/ml IFNβ on A549 cells (EMC virus) [13] [µg/mL] | % Wild type binding of mAbs [15] [%] | % Wild type binding of mAbs [16] [%] | % Wild type binding of mAbs [17] [%] | also measured | Substance
0.066 | 101 | 66 | 84 | 6 | 97 | 0 | 105 | 105 | 21 | 87 | 3 | 3 | 1 | 1 | 1 | > 30 | 54 | 92 | 57 | Mean Fluorescence Intensity [1]: 7.6; Mean Fluorescence Intensity [14]: 7.82; % Wild type binding of mAbs [18]: 74%; % Wild type binding of mAbs [19]: 7%; % Wild type binding of mAbs [20]: 5%; % Wild type binding of mAbs [21]: 5%; % Wild type binding of mAbs [22]: 34%; % Wild type binding of mAbs [23]: 36%; % Wild type binding of mAbs [24]: 81%; % Wild type binding of mAbs [25]: 72%; % Wild type binding of mAbs [26]: 90%; Mean Fluorescence Intensity [27]: 7.65; Mean Fluorescence Intensity [28]: 2.83 | anti-hIFNAR1 monoclonal antibody 2E1 (hybridoma ATCC HB 12133)
3.12 | 77 | 39 | 90 | 64 | 48 | 105 | 93 | 101 | 0 | 68 | > 30 | > 30 | > 30 | > 30 | > 30 | > 30 | 65 | 94 | 0 | % Wild type binding of mAbs [18]: 88%; % Wild type binding of mAbs [19]: 49%; % Wild type binding of mAbs [20]: 69%; % Wild type binding of mAbs [21]: 49%; % Wild type binding of mAbs [22]: 55%; % Wild type binding of mAbs [23]: 53%; % Wild type binding of mAbs [24]: 79%; % Wild type binding of mAbs [25]: 64%; % Wild type binding of mAbs [26]: 89% | anti-hIFNAR1 monoclonal antibody 2H6 (hybridoma ATCC HB 12131)
0.174 | 110 | 34 | 100 | 75 | 109 | 110 | 83 | 81 | 67 | 80 | > 30 | > 30 | > 30 | > 30 | > 30 | > 30 | 82 | 99 | 84 | % Wild type binding of mAbs [18]: 93%; % Wild type binding of mAbs [19]: 61%; % Wild type binding of mAbs [20]: 71%; % Wild type binding of mAbs [21]: 70%; % Wild type binding of mAbs [22]: 66%; % Wild type binding of mAbs [23]: 72%; % Wild type binding of mAbs [24]: 83%; % Wild type binding of mAbs [25]: 91%; % Wild type binding of mAbs [26]: 110% | anti-hIFNAR1 monoclonal antibody 5A8 (hybridoma ATCC HB 12129)
